From US20150344570A1 (published 2015)

T1: FcγRIIb extracellular domain with C-terminal His tag (human, UniProt P31994 43-217)
T1 construct: extracellular domain; also called FcgRIIb; 2b
T1 sequence (looked up): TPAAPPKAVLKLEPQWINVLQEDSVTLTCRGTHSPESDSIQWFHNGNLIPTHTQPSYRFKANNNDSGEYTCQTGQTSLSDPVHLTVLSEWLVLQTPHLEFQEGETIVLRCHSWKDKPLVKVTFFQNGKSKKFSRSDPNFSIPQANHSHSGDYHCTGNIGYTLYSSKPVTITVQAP

B1: GpH7-A5/GpH7-B3 variant G237_08L/GpL16-k0 (antibody, human IgG1, kappa)
heavy 1: not shown
heavy 2: not shown
light: DIVMTQSPLSLPVTPGEPASISCQASESLVHSNRNTYLHWYLQKPGQSPQLLIYKVSNRFSGVPDRFSGSGSGTDFTLKISRVEAEDVGVYYCSQNTHVPPTFGQGTKVEIERTVAAPSVFIFPPSDEQLKSGTASVVCLLNNFYPREAKVQWKVDNALQSGNSQESVTEQDSKDSTYSLSSTLTLSKADYEKHKVYACEVTHQGLSSPVTKSFNRGEC
notes: also called He Ab G237_08L
B2: GpH7-A5/GpH7-B3 variant G237_09D/GpL16-k0 (antibody, human IgG1, kappa)
heavy 1: not shown
heavy 2: not shown
light: B1 light
notes: also called He Ab G237_09D
B3: GpH7-A5/GpH7-B3 variant G237_10E/GpL16-k0 (antibody, human IgG1, kappa)
heavy 1: not shown
heavy 2: not shown
light: B1 light
notes: also called He Ab G237_10E
B4: GpH7-A5/GpH7-B3 variant G237_13S/GpL16-k0 (antibody, human IgG1, kappa)
heavy 1: not shown
heavy 2: not shown
light: B1 light
notes: also called He Ab G237_13S
B5: GpH7-A5/GpH7-B3 variant G237_15Y/GpL16-k0 (antibody, human IgG1, kappa)
heavy 1: not shown
heavy 2: not shown
light: B1 light
notes: also called He Ab G237_15Y
B6: GpH7-A5/GpH7-B3 variant G237_18N/GpL16-k0 (antibody, human IgG1, kappa)
heavy 1: not shown
heavy 2: not shown
light: B1 light
notes: also called He Ab G237_18N
B7: GpH7-A5/GpH7-B3 variant G237_19Q/GpL16-k0 (antibody, human IgG1, kappa)
heavy 1: not shown
heavy 2: not shown
light: B1 light
notes: also called He Ab G237_19Q
B8: GpH7-A5/GpH7-B3 variant G237_20W/GpL16-k0 (antibody, human IgG1, kappa)
heavy 1: not shown
heavy 2: not shown
light: B1 light
notes: also called He Ab G237_20W
B9: GpH7-A5/GpH7-B3 variant H268_03V/GpL16-k0 (antibody, human IgG1, kappa)
heavy 1: not shown
heavy 2: not shown
light: B1 light
notes: also called He Ab H268_03V
B10: GpH7-A5/GpH7-B3 variant H268_05P/GpL16-k0 (antibody, human IgG1, kappa)
heavy 1: not shown
heavy 2: not shown
light: B1 light
notes: also called He Ab H268_05P
B11: GpH7-A5/GpH7-B3 variant H268_15Y/GpL16-k0 (antibody, human IgG1, kappa)
heavy 1: not shown
heavy 2: not shown
light: B1 light
notes: also called He Ab H268_15Y
B12: GpH7-A5/GpH7-B3 variant I332_02A/GpL16-k0 (antibody, human IgG1, kappa)
heavy 1: not shown
heavy 2: not shown
light: B1 light
notes: also called He Ab I332_02A
B13: GpH7-A5/GpH7-B3 variant I332_14T/GpL16-k0 (antibody, human IgG1, kappa)
heavy 1: not shown
heavy 2: not shown
light: B1 light
notes: also called He Ab I332_14T
B14: GpH7-A5/GpH7-B3 variant I336_06M/GpL16-k0 (antibody, human IgG1, kappa)
heavy 1: not shown
heavy 2: not shown
light: B1 light
notes: also called He Ab I336_06M
B15: GpH7-A5/GpH7-B3 variant I336_08L/GpL16-k0 (antibody, human IgG1, kappa)
heavy 1: not shown
heavy 2: not shown
light: B1 light
notes: also called He Ab I336_08L
B16: GpH7-A5/GpH7-B3 variant K326_07I/GpL16-k0 (antibody, human IgG1, kappa)
heavy 1: not shown
heavy 2: not shown
light: B1 light
notes: also called He Ab K326_07I
B17: GpH7-A5/GpH7-B3 variant K326_08L/GpL16-k0 (antibody, human IgG1, kappa)
heavy 1: not shown
heavy 2: not shown
light: B1 light
notes: also called He Ab K326_08L
B18: GpH7-A5/GpH7-B3 variant K326_20W/GpL16-k0 (antibody, human IgG1, kappa)
heavy 1: not shown
heavy 2: not shown
light: B1 light
notes: also called He Ab K326_20W
B19: GpH7-A5/GpH7-B3 variant L234_09D/GpL16-k0 (antibody, human IgG1, kappa)
heavy 1: not shown
heavy 2: not shown
light: B1 light
notes: also called He Ab L234_09D
B20: GpH7-A5/GpH7-B3 variant L234_10E/GpL16-k0 (antibody, human IgG1, kappa)
heavy 1: not shown
heavy 2: not shown
light: B1 light
notes: also called He Ab L234_10E
B21: GpH7-A5/GpH7-B3 variant L234_20W/GpL16-k0 (antibody, human IgG1, kappa)
heavy 1: not shown
heavy 2: not shown
light: B1 light
notes: also called He Ab L234_20W
B22: GpH7-A5/GpH7-B3 variant L235_04F/GpL16-k0 (antibody, human IgG1, kappa)
heavy 1: not shown
heavy 2: not shown
light: B1 light
notes: also called He Ab L235_04F
B23: GpH7-A5/GpH7-B3 variant L235_09D/GpL16-k0 (antibody, human IgG1, kappa)
heavy 1: not shown
heavy 2: not shown
light: B1 light
notes: also called He Ab L235_09D
B24: GpH7-A5/GpH7-B3 variant L235_15Y/GpL16-k0 (antibody, human IgG1, kappa)
heavy 1: not shown
heavy 2: not shown
light: B1 light
notes: also called He Ab L235_15Y
B25: GpH7-A5/GpH7-B3 variant L235_20W/GpL16-k0 (antibody, human IgG1, kappa)
heavy 1: not shown
heavy 2: not shown
light: B1 light
notes: also called He Ab L235_20W
B26: GpH7-A5/GpH7-B3 variant L328_02A/GpL16-k0 (antibody, human IgG1, kappa)
heavy 1: not shown
heavy 2: not shown
light: B1 light
notes: also called He Ab L328_02A
B27: GpH7-A5/GpH7-B3 variant L328_09D/GpL16-k0 (antibody, human IgG1, kappa)
heavy 1: not shown
heavy 2: not shown
light: B1 light
notes: also called He Ab L328_09D
B28: GpH7-A5/GpH7-B3 variant L328_10E/GpL16-k0 (antibody, human IgG1, kappa)
heavy 1: not shown
heavy 2: not shown
light: B1 light
notes: also called He Ab L328_10E
B29: GpH7-A5/GpH7-B3 variant L328_13S/GpL16-k0 (antibody, human IgG1, kappa)
heavy 1: not shown
heavy 2: not shown
light: B1 light
notes: also called He Ab L328_13S

Biological target: T1, FcγRIIb extracellular domain with …
Test: SPR (Biacore), relative binding

He/Con_2b | Binder
148 % of HeCon Ab GpH7-A5/GpH7-B3/GpL16-k0 | B1
223 % of HeCon Ab GpH7-A5/GpH7-B3/GpL16-k0 | B2
114 % of HeCon Ab GpH7-A5/GpH7-B3/GpL16-k0 | B3
111 % of HeCon Ab GpH7-A5/GpH7-B3/GpL16-k0 | B4
152 % of HeCon Ab GpH7-A5/GpH7-B3/GpL16-k0 | B5
180 % of HeCon Ab GpH7-A5/GpH7-B3/GpL16-k0 | B6
108 % of HeCon Ab GpH7-A5/GpH7-B3/GpL16-k0 | B7
193 % of HeCon Ab GpH7-A5/GpH7-B3/GpL16-k0 | B8
114 % of HeCon Ab GpH7-A5/GpH7-B3/GpL16-k0 | B9
116 % of HeCon Ab GpH7-A5/GpH7-B3/GpL16-k0 | B10
106 % of HeCon Ab GpH7-A5/GpH7-B3/GpL16-k0 | B11
103 % of HeCon Ab GpH7-A5/GpH7-B3/GpL16-k0 | B12
106 % of HeCon Ab GpH7-A5/GpH7-B3/GpL16-k0 | B13
101 % of HeCon Ab GpH7-A5/GpH7-B3/GpL16-k0 | B14
107 % of HeCon Ab GpH7-A5/GpH7-B3/GpL16-k0 | B15
199 % of HeCon Ab GpH7-A5/GpH7-B3/GpL16-k0 | B16
177 % of HeCon Ab GpH7-A5/GpH7-B3/GpL16-k0 | B17
148 % of HeCon Ab GpH7-A5/GpH7-B3/GpL16-k0 | B18
150 % of HeCon Ab GpH7-A5/GpH7-B3/GpL16-k0 | B19
118 % of HeCon Ab GpH7-A5/GpH7-B3/GpL16-k0 | B20
114 % of HeCon Ab GpH7-A5/GpH7-B3/GpL16-k0 | B21
118 % of HeCon Ab GpH7-A5/GpH7-B3/GpL16-k0 | B22
106 % of HeCon Ab GpH7-A5/GpH7-B3/GpL16-k0 | B23
149 % of HeCon Ab GpH7-A5/GpH7-B3/GpL16-k0 | B24
147 % of HeCon Ab GpH7-A5/GpH7-B3/GpL16-k0 | B25
144 % of HeCon Ab GpH7-A5/GpH7-B3/GpL16-k0 | B26
199 % of HeCon Ab GpH7-A5/GpH7-B3/GpL16-k0 | B27
172 % of HeCon Ab GpH7-A5/GpH7-B3/GpL16-k0 | B28
149 % of HeCon Ab GpH7-A5/GpH7-B3/GpL16-k0 | B29
